Laboratory results as given in patent US20220143094A1 (Chugai, published 2022).
Positions count from the first letter of the chain named.

B1: SKA0009H-F760mnN17/SKA0009Ls-k0MT//TR01H113-F760mnP17/L0011-k0a (bispecific antibody, human IgG1, kappa, N297A)
heavy 1: QSVEESGGRLVTPGTSLTLTCTVSGIDLSSYGMGWVRQAPGMGLEYIGIIYAAGRTYYASWVKGRFIISKTSTTVDLEMTSLTTEDTATYFCARHGSWYAGMDLWGPGTLVTVSSASTKGPSVFPLAPSSKSTSGGTAALGCLVKDYFPEPVTVSWNSGALTSGVHTFPAVLQSSGLYSLSSVVTVPSSSLGTQTYICNVNHKPSNTKVDKKVEPKSCDKTHTCPPCPAPELRGGPKVFLFPPKPKDTLMISRTPEVTCVVVDVSHEDPEVKFNWYVDGVEVHNAKTKPREEQYASTYRVVSVLTVLHQDWLNGKEYKCKVSNKALPAPIEKTISKAKGQPREPQVYTLPPSREEMTKNQVSLTCLVKGFYPSDIAVEWESNGQPENNYKTTPPYLDSDGSFFLYSKLTVDKSRWQQGNVFSCSVMHEALHNHYTQESLSLSP
light 1: AIEMTQTPSPVSAAVGGTVSINCQASEDIENYFAWYQQKPGQPPKLLIYDASELASGVPSRFSGSGSGTDFTLTISGVQSDDAATYYCQHADYAASSENTFGGGTEVVVKRTVAAPSVFIFPPSDEQLKSGTASVVCLLNNFYPREAKVQWKVDNALQSGNSQESVTEQDSKDSTYSLSSTLTLSKADYEKHKVYACEVTHQGLSSPVTKSFNRGEC
heavy 2: QVQLVESGGGVVQPGGSLRLSCAASGFTFSNAWMHWVRQAPGKGLEWVAQIKDKSQNYATYVAESVKGRFTISRADSKNSIYLQMNSLKTEDTAVYYCRYVHYAAGYGVDIWGQGTTVTVSSASTKGPSVFPLAPSSKSTSGGTAALGCLVKDYFPEPVTVSWNSGALTSGVHTFPAVLQSSGLYSLSSVVTVPSSSLGTQTYICNVNHKPSNTKVDKKVEPKSCDKTHTCPPCPAPELRGGPKVFLFPPKPKDTLMISRTPEVTCVVVDVSHEDPEVKFNWYVDGVEVHNAKTKPREEQYASTYRVVSVLTVLHQDWLNGKEYKCKVSNKALPAPIEKTISKAKGQPREPQVYTLPPSRKEMTKNQVSLTCLVKGFYPSDIAVEWESNGQPENNYKTTPPYLDSDGSFFLYSKLTVDKSRWQQGNVFSCSVMHEALHNHYTQKSLSLSP
light 2: DIVMTQSPLSLPVTPGEPASISCRSSQPLVHSNRNTYLHWYQQKPGQAPRLLIYKVSNRFSGVPDRFSGSGSGTDFTLKISRVEAEDVGVYYCGQGTQVPYTFGQGTKLEIKRTVAAPSVFIFPPSDEQLKSGTASVVCLLNNFYPREAKVQWKVDNALQSGNSQESVTEQDSKDSTYSLSSTLTLSKADYEKHKVYACEVTHQGLSSPVTKSFNRGEC
notes: Bispecific IgG made by mixing two homomers under 2-MEA reduction; also called anti-silent Fc antibody; silent Fc×CD3
B2: YG55H-F760mnN17GK/YG55L-k0//TR01H113-F760mnP17GK/L0011-k0a (bispecific antibody, human IgG1, kappa, N297A)
heavy 1: QSLEESGGRLVTPGGSLTLTCTVSGIDLSNYAVGWVRQAPGKGLEYIGIIYASGSAYYASWAKGRFTISKTSSTTVDLKVTSLTTEDTATYFCARGYGRAFRIWGPGTLVTVSSASTKGPSVFPLAPSSKSTSGGTAALGCLVKDYFPEPVTVSWNSGALTSGVHTFPAVLQSSGLYSLSSVVTVPSSSLGTQTYICNVNHKPSNTKVDKKVEPKSCDKTHTCPPCPAPELRGGPKVFLFPPKPKDTLMISRTPEVTCVVVDVSHEDPEVKFNWYVDGVEVHNAKTKPREEQYASTYRVVSVLTVLHQDWLNGKEYKCKVSNKALPAPIEKTISKAKGQPREPQVYTLPPSREEMTKNQVSLTCLVKGFYPSDIAVEWESNGQPENNYKTTPPYLDSDGSFFLYSKLTVDKSRWQQGNVFSCSVMHEALHNHYTQESLSLSPGK
light 1: AVLTQTPSPVSAAVGGTVTISCQASQSVYNNNFLSWYQQKPGQRPKLLIYDASTLESGVPSRFSGSGSGTQFTLTISSVQCDDAATYYCLGGYDDHDNAFGGGTEVVVKRTVAAPSVFIFPPSDEQLKSGTASVVCLLNNFYPREAKVQWKVDNALQSGNSQESVTEQDSKDSTYSLSSTLTLSKADYEKHKVYACEVTHQGLSSPVTKSFNRGEC
heavy 2: QVQLVESGGGVVQPGGSLRLSCAASGFTFSNAWMHWVRQAPGKGLEWVAQIKDKSQNYATYVAESVKGRFTISRADSKNSIYLQMNSLKTEDTAVYYCRYVHYAAGYGVDIWGQGTTVTVSSASTKGPSVFPLAPSSKSTSGGTAALGCLVKDYFPEPVTVSWNSGALTSGVHTFPAVLQSSGLYSLSSVVTVPSSSLGTQTYICNVNHKPSNTKVDKKVEPKSCDKTHTCPPCPAPELRGGPKVFLFPPKPKDTLMISRTPEVTCVVVDVSHEDPEVKFNWYVDGVEVHNAKTKPREEQYASTYRVVSVLTVLHQDWLNGKEYKCKVSNKALPAPIEKTISKAKGQPREPQVYTLPPSRKEMTKNQVSLTCLVKGFYPSDIAVEWESNGQPENNYKTTPPYLDSDGSFFLYSKLTVDKSRWQQGNVFSCSVMHEALHNHYTQKSLSLSPGK
light 2: B1 light 2
notes: Bispecific IgG made by mixing two homomers under 2-MEA reduction; also called anti-delta GK-Fc antibody; delta GK-Fc×CD3
B3: H0000-SG115/GL4-k0a (antibody)
heavy: QVQLVQSGAEVKKPGASVKVSCKASGYTFTDYEMHWIRQPPGQGLEWIGAIDPKTGDTAYSQKFKGRVTLTADKSTSTAYMELSSLTSEDTAVYYCTRFYSYTYWGQGTLVTVSSASTKGPSVFPLAPSSKSTSGGTAALGCLVKDYFPEPVTVSWNSGALTSGVHTFPAVLQSSGLYSLSSVVTVPSSSLGTQTYICNVNHKPSNTKVDKKVEPKSCDKTHTCPPCPAPELRRGPKVFLFPPKPKDTLMISRTPEVTCVVVDVSHEDPEVKFNWYVDGVEVHNAKTKPREEQYNSTYRVVSVLTVLHQDWLNGKEYKCKVSNKGLPSSIEKTISKAKGQPREPQVYTLPPSREEMTKNQVSLTCLVKGFYPSDIAVEWESNGQPENNYKTTPPVLDSDGSFFLYSKLTVDKSRWQQGNVFSCSVLHEALHAHYTRKELSLSP
light: B1 light 2 with P28S, G94S, G96N, Q98H, Y101P
notes: Anti-GPC3 antibody with the SG115 constant region, which is both silent Fc and delta GK-Fc; also called anti-GPC3 silent Fc antibody; anti-GPC3 silent Fc and anti-delta GK-Fc antibody
B4: H0000-G1T3GK/GL4-k0a (antibody, human IgG1, kappa)
heavy: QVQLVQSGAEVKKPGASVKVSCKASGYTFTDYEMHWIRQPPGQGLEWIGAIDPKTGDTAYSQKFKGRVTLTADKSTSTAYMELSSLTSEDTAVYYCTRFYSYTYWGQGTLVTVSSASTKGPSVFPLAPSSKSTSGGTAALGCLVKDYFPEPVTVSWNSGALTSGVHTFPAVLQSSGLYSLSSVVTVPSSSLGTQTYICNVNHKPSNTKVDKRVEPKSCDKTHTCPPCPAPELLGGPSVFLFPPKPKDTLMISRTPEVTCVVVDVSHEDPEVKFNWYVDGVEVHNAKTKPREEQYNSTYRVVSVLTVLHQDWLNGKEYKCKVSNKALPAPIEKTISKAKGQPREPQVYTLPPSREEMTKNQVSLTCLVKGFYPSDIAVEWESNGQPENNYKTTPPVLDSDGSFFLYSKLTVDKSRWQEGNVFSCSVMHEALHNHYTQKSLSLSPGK
light: B1 light 2 with P28S, G94S, G96N, Q98H, Y101P
notes: Control antigen antibody with the same variable regions as m1 and a human IgG1 constant region carrying C-terminal GK; also called anti-GPC3 antibody with C-terminal addition of Gly-Lys; anti-GPC3 antibody having IgG1 constant region having C-terminal GK

How the values were obtained:
[1] = target: B3; experiment: SPR (Biacore T200), multi-cycle kinetics; anti-GPC3 antibody captured on engineered GPC3 CM4 chip, bispecific antibody as analyte at 15.6-1000 nM
[2] = target: B4; experiment: as above
[3] = target: engineered GPC3 (Homo sapiens (Human), UniProt P51654 25-563); experiment: SPR (Biacore T200); capture of the antibody on an engineered GPC3 CM4 chip
Sequence of engineered GPC3 (P51654 other isoform, or with tags, fused parts or gaps limits assumed): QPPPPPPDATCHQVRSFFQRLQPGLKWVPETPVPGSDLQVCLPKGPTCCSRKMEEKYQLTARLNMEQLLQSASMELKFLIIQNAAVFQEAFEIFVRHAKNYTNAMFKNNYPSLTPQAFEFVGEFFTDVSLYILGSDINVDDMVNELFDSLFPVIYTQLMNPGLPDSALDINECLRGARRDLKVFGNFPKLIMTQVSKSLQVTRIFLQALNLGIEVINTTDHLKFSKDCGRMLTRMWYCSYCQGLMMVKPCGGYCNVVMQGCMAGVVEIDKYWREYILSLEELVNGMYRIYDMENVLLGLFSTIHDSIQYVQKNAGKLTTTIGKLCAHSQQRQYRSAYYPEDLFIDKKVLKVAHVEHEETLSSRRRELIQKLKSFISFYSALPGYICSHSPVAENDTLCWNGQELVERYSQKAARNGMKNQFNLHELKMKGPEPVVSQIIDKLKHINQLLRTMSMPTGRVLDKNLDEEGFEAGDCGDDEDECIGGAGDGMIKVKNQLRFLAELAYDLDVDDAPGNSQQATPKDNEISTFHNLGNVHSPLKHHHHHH

Binder	Kd [1]	koff [1]	kon [1]	kon [2]	binding result [3]
B1	< 0.26 nM	< 1e-05 s⁻¹	38900 M⁻¹ s⁻¹	2610 M⁻¹ s⁻¹	
B2	41.7 nM	0.00348 s⁻¹	83500 M⁻¹ s⁻¹		
B3					binds
B4					binds
